Our source for the surface area buried through this interaction values is patent publication US20030036091A1.

The target of assay [1] is Deinococcus radiodurans LuxS (Deinococcus radiodurans). The experiment in a line: X-ray crystal structure, P21 form, homodimer interface.
The target is the same in assay [2]. The experiment in a line: X-ray crystal structure, C2 form, crystallographic dimer interface.
Assay [3] concerns the target Helicobacter pylori LuxS (Helicobacter pylori). The experiment in a line: X-ray crystal structure, homodimer interface.
The target in assay [4] is Haemophilus influenzae LuxS (Haemophilus influenzae). The assay is described as follows: X-ray crystal structure, homodimer interface.

Turning to Deinococcus radiodurans LuxS (enzyme), the values for the surface area buried through this interaction in assay [1] and in assay [2] were 3930 Å^2 and 3200 Å^2, respectively.

Consider Helicobacter pylori LuxS (enzyme), for which the surface area buried through this interaction in assay [3] came out at 4180 Å^2.

Take Haemophilus influenzae LuxS (enzyme): in assay [4], the surface area buried through this interaction turned out to be 4160 Å^2.
